This passage reports Kd results from US20180207259A1.

In the experiment the target is 92UG037.8-gp140-Fd (HIV-1 primary isolate 92UG037.8 (clade A)). The experiment in a line: surface plasmon resonance.

pKd: −log10 of the molar value.

For monoclonal antibody (mAb) 2G12, the pKd – broadly, −log10 of the Kd, conventionally taken in molar units – is 7.75.
